From the nanobody polyreactivity screen of Harvey et al. (2022)

Assay: yeast display, Sf9 membrane polyspecificity reagent, FACS + sequencing; frameworks hold sequencing errors
Summary of the method: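 Synthetic nanobody libraries on Saccharomyces cerevisiae BJ5465 were galactose-induced for 36–48 hours, stained 1 hour at 4 °C with 10% biotinylated, detergent-solubilized Sf9 membrane reagent and enriched on streptavidin microbeads. FACS then separated cells into low and high (top ~1%) gates by anti-HA (expression) and streptavidin (reagent binding) fluorescence. Genes were colony-PCR amplified, MiSeq 2 × 250 sequenced and CDR-length filtered. A clone's polyreactivity label is that of its gate of origin.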

| Sequence | polyreactivity (PSR sort gate) |
| --- | --- |
| QVQLEESGGGLVQAGGSLRLICAASGGTFSYNAMGWYRQAPGKERELVAAISWSGTRTYYADSVKGRFTISRDNEKNTVYLQMNSLKPEDTAVYYCNADSDTPRYDYWGLGTQVTVSS | low polyreactivity |
| QVQLVESGGGLVQAGGSLRLSCAASGRILLRNVMGLYRPAPGKERELVAVITRTGITYYADSVKGRFTISRDNAKNTVYLQMISLNPEDTAVYYCAAGLPTYEHDYWGQGTQVTVSS | low polyreactivity |
| QVQLVESGGGLVQAGGSLRLSCAASGRTFTPYAMGWYRPAPGKERELVATISSGTSTNYADSVKGRVTISRDNAKNTVYLQMNSLKPEDTAVYYCSPSRDTVGRGPIQRDYWGQGTQVTVSS | low polyreactivity |
| QVQLVESGGALVQAGGSLRISCAASGFTLQRNTMGWYRQAPGKDREFVAAISVRGGSTYYADSVKGRFTNSRDTAKNTVYLQMNSLKPEDTAVYYCAAVGRPSQYSYPYGYWGQGTQVTVSS | high polyreactivity |
| QVQLVESGGGLVQAGGSLRLSCAASGRTFWRNAMGWYRQAPGKERELVAAISRGASTNYADSVKGRYTISRDNAKNTVYLQMNSLKPEDTAFYYCAARYYYRYNYWGQGTQVTVSS | high polyreactivity |
| QVQLVESGGGLVQAGGSLRLSCAASGFTFYGYGMGWYRQAPGKERELVAVITSGGSTKYADSVKGRFTISRDNAKNTVDLQMNSLKPEDTAVYYCNVVGGRYLYSAYDYWGQGTQVTVSS | low polyreactivity |
| QVQLVESGGVLVQAGGSLRLSCAASGFIFSEYAMGWYRHAPGKERELVAAISRSGGRTYYADSVKGRFTISRDNAKNTVYLQMNSLKPEDTAVYYCAAVWWWYYNHYYYWGQGTLVTVSS | high polyreactivity |
| QVQLVESGVGLVQAGGSLRLSCAASGSIFLHNAMGWYRQAPGKERELVAGITGSGGSTYYADSVKGRFTISRDNAKNTVYLQMNSLKPEDTAVYYCAAERYGYERYYWGQGTQVTVSS | high polyreactivity |
| QDQLVESGGGLVQAGGSLRLSCAASGTTFQYNAMGWYRQAPGKERELVAAISGSGGSTYYADSVKGRFTISRDNAKNTVYLEMNSLKPEDTAVYYCARVGYRHGYYNYCGQGTQVTVSS | high polyreactivity |
| QVQLVESGGGLVQAGGSLRLSCAASGFTFRRYAMGWYRQAPGKERELVAAISRGSSTYYADSVKGRFTISRDNAKNTVYLQMNSLKPEDTAVYYCAADWEQLRGTMDYWGQGTQVTVSS | high polyreactivity |
| QVQLVESGGGLVQAGGSLRLSCAASGSIFTIYAMGWYRQAPGKERELVAAISFSGGSTYYADSVKGRFTISRDNAKNTVYLQMNSLKPEDTAVYYCAADGGFTYDNWGQGTQVTVSS | low polyreactivity |
| QVQLVESGGGLVQAGRSLRLSCAASGFTFGYYAMGWYRQPPGKERELVAAISWNGGRTYYADSVKGRFTISRDNAKNTVYLQMISLKPEDTAVYYCAADYRFYSPTQYTYDYWGQGTQVTVSS | high polyreactivity |
| QDQLVESGVGLVQAGGSLRLSCAASGRTFYYNTMGWYRPAPGKETEFVATITSTHDTNYADSVKGRFTISRDNAKNSVYLQMNSLKPEDTAVYYCAKGYLNYGRDWDFDYWGHGTQVTVSS | low polyreactivity |
| QVQLVESGGGLVQAGGSLRLRCAASGRIFVENAMGWYRQAPGKERELVATISSGDSTNYADSVKGRFTISRDNAKNTVYLQMNSLKPEDTAVYYCDAADGIIESDYWGQGTQVTVSS | low polyreactivity |
| QVQLVESGGGLVQAGGSLRLSCAASGRIFVYNAMGWYRQAPGKERELVAAITRGCSTYYADSVKGRFTISRDNAKNTVYLQMNSLKPEDTAVYYCASDYQRNDFRWYDYWGQGTQVTVSS | low polyreactivity |
| QVQLVESGAGLVQAAGRLRLSCAASGNTFKVNVMGWYRPAPGKERQLVASITINDRSTYYADSVKGRFTISRDNAKNTVYLQMNSLKREDTEVYYCGGDLADFYPRFNYWGQGTQVSVSS | low polyreactivity |

| Sequence | polyreactivity (PSR sort gate) |
| --- | --- |
| QVQLVESGGGLVQAGGSLRLSCAASGRIFTYYAMGWYRQAPGKVRELVAAISSGGSTYYADSVKGRFTISRDNAKTTVYLQMNSLTPEDTAVYYCAAEPSYYPYLSPTYGYWGQGTQVTVSS | low polyreactivity |
| QVQLVESGGGLVQAGGSLRLSCAAYGNIIYYNAMGWYRQATGKERELVASITWSGGSTYYADSVKGRFTISRDNAKNTVYLQMNSLKPEDTAVYYCAAGYSPPKPYSGGYYYWGQGTQVTVSS | low polyreactivity |
| QVQLVESGGGLVQSGGSLRLSCAASGYIFGYYAMGWYRQAPGKERELVAAITGTDDTNYADSVKGRFTISRDNAKNTVYLQMNSLIPEDTAVYYCAAYSWWNEYDYWGQGTQVTVSS | high polyreactivity |
| QVQLVESGGGLVQAGGSQRLSCAASGSIFDLKAMGSYRQAPGKERELVAAISSGGGTYYADSVKGRFTISRDNAKNTVYLQMNSLKPEDTAVYYCNRVTRWTYNYWGQGTQVTVSS | high polyreactivity |
| QVQLVESGGGLDQAGGSLRLSSAASGRTFYYYAMGWYRKAPGKERELVAAITRSGGSTYYADSVKGRFTISRDNAKNTFYLQMNSLKPEDTAVYYCAVQVRPNSGGTRIHRGGYDYWGQGTQVTVSS | low polyreactivity |
| QVQLVESGGGLVQAGGSLRLSCAASGSTFVKNSMGLYRQAPGKERELVAVISWPGSSTYYADSVKGRFTISRDNAKNTDYLQMISLKPEDTAVYYCNAPKIRPGSHTRHYYWGQGTQVTVSS | low polyreactivity |
| QVQLVESGGGLVQAGGSLRLSCAASGSIFRSYAMGWYRQAPGKERELVAAITYSGGGTYYADSVKGRFTISRDNAKTTVYLQMNSLKPEDTAVYYCNAVGGIYDFDYWGQGTQVTVSS | high polyreactivity |
| QVQLVESGGGLVQAGGSLRLSCAASGGTFTHYGMGWYRQAPGKERELVAAITWTASSTYYADSVKGRFTISRDNAKNTVYLQMNSLKPEDTAVYYCATSYYYWGHTYDYWGQGTQVTVSS | low polyreactivity |
| QVQLVESGGGLVQAGGSLRLSCAASGRTFTRNAMGWYRQAPGKERELVAAITYRAGRTYYADSVKGRFTISRDNAKNTVYLQMNSLKPEDTAVYYCNVVPGASLKEDYWGQGTQVTVSS | low polyreactivity |
| QVQLVESGGGLVQAGGSLRLSCAASGYTFEPYAMGWYRQAPGKESELVAAISRGGTTNYADSVKGRFTISRDNAKNTVYLQINSLKPEDTAVYYCASSYFRRVFYSIYEYDYWGQGTQVTVSS | low polyreactivity |
| QVQLVDSGGGLVQAGGSLRLSCAASGIIFHFNDLGLYIQAPGKERELVAAIDSTGSTNYSDSVKGRYTISRDNAKITVYLQLNRVKPEDTAVYNCAVLNHRVDAVLTRYYYWGQGTKVTVSS | low polyreactivity |
| QVQLVESGGGLVQAGGSLRLSCAASGRIFGHNAMGWYRQAPGKERELVARISSTGSTKYADSVKGRFTISRDNAKNTVYFQMNSLKPEDTAVYYCAAVDRLRSIRYDYWGQGTQVTVSS | high polyreactivity |
| QVQLVESGGGLVQAGGSLRLSCAASGYIFDGNAMGWYRQAPGKERELVASISSGTSTYYADSVKGRFTISRDNAKNTVYLQMNSLKPEDTAVYYCAGDYKWSGFGYWGQGTQVTVSS | low polyreactivity |
| QVQHVESGGALVQAGGSLRLSCAASGSTFIKYAMGWYRQAPGKERELVAAISRSGASTYYADSVKGRFTLSRDNEKNTVYLQMKSLKPEDTAVYYCAARRRYLDHGYWGQGTQVTVSS | high polyreactivity |
| QVQLVESGGGLVQAGGSLRLSCAASGFIFYRNTMGWSRQAPGKEREFVAAIRWRGGSTYYADSVKGRFTISRDNAKNTVYLQMNSLKPEDTAVYYCAADTRPGYSGFEYWGQGTQVTVSS | high polyreactivity |
| QVQLVESGGGLVQAGGSLRLSCAASGSIFGGYTMGWYRQAPGKERKLVAAISRRGGNTYYADSVKGRFTISRDNAKNTVYLLMNSLKPEDTAVYYCAVRWPSARIPVKLDYWGQGTQVTVSS | high polyreactivity |
